Broadly, the Kd is a measure of binding affinity in units of concentration.

2 molecules from paper PMC4877808 can be followed below.

Assay [1] deals with His-tagged recombinant TbHpHbR (T. brucei haptoglobin-hemoglobin complex receptor, without the signal sequence) (Trypanosoma brucei brucei GUTat 3.1). The assay is described as follows: SPR; quantitative: Biacore X, His-tagged receptor immobilised on CM5 (rTcHpHbR 800 RU, rTbHpHbR 480 RU), 30 μl/min, free-Hb and free-Hp 0.0001-10 μM; Kd = dissociation rate constant / association rate constant.

Assay [2] deals with His-tagged recombinant TcHpHbR (T. congolense haptoglobin-hemoglobin complex receptor, without the signal sequence) (Trypanosoma congolense IL3000). Described as above.

As for “bovine hemoglobin (free-Hb), from bovine erythrocytes (from UniProt P01966 1-142; P02070 1-145) (ligand)”, the Kd in assay [1] was determined as 5.3 µM; in assay [2], 20.5 nM.

B1: haptoglobin (free-Hp) (ligand)
chain 1: VETGSEATADSCPKAPEIANSHVEYSVRYQCDKYYKLHAGNGVYTFNNKQWINKDIGQQLPECEEDDSCPEPPKIENGYVEYLVRYQCKPYYTLRTCGDGVYTFNSKKQWINKNIGQKLPECEAVCGKPKHPVDQVQ
chain 2: IIGGSLDAKGSFPWQAKMVSQHNLISGATLINERWLLTTAKNLYLGHSSDKKAKDITPTLRLYVGKNQLVEVEKVVLHPDHSKVDIGLIKLRQKVPVNDKVMPICLPSKDYVKVGRVGYVSGWGRNENFNFTEHLKYVMLPVADQDKCVKHYEGVDAPKNKTAKSPVGVQPILNENTFCVGLSKYQDDTCYGDAGSAFVVHDKEDDTWYAAGILSFDKSCAVAEYGVYVKVTSILDWVRKTIANN
In the case of B1, the Kd worked out at 1.8 µM in assay [1] and 220 nM in assay [2].
